Measured values as given in paper PMC9569620, “OsNAC15 Regulates Tolerance to Zinc Deficiency and Cadmium by Binding to OsZIP7 and OsZIP10 in Rice”.

How the values were obtained:
GST-OsNAC15 [1] = target: T1, GST-OsNAC15 (Oryza sativa, UniProt K9LKF1 1-301); test: EMSA; EMSA: 20 uL reaction, room temperature, 20 min; 6.5% polyacrylamide gel in 0.5x TBE, 1 h; buffer, salt and pH not stated (LightShift Chemiluminescent EMSA kit); settings: protein: recombinant; tags: N-term GST (pGEX-4T1); chain copies: 2; label: biotin at 5' of F strand; biotin printed at 3' end of R strand; blunt
T1 sequence: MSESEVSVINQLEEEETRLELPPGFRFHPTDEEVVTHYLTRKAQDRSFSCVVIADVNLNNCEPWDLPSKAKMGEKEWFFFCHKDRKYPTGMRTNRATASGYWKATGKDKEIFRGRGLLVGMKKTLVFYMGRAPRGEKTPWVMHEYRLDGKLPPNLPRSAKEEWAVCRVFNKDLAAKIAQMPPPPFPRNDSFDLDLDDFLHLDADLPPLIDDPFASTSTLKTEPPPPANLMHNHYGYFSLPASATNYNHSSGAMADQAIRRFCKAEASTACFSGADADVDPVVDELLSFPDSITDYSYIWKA

GST-OsNAC15 [2] = target: T1, GST-OsNAC15; test: competition; 25-fold molar excess over labeled OsZIP10 probe; complex band weaker; EMSA: 20 uL reaction, room temperature, 20 min; 6.5% polyacrylamide gel in 0.5x TBE, 1 h; buffer, salt and pH not stated (LightShift Chemiluminescent EMSA kit); settings: protein: recombinant; tags: N-term GST (pGEX-4T1); chain copies: 2; label: none; blunt

B1: OsZIP10 probe (dsDNA)
DNA 1: TCGCGCCATGGTGTCGACACGGCCATCTCT
DNA 2: AGAGATGGCCGTGTCGACACCATGGCGCGA
binding result (GST-OsNAC15 [1]): binds

B2: OsZIP10 cold competitor (dsDNA)
DNA 1: TCGCGCCATGGTGTCGACACGGCCATCTCT
DNA 2: AGAGATGGCCGTGTCGACACCATGGCGCGA
binding result (GST-OsNAC15 [2]): binds
